Data reported in publication doi:10.1101/2024.12.06.626481 (bioRxiv, 2024).

Molecular target: murine IL-21 (mIL-21) (murine, UniProt Q9ES17 18-146)
Test: BLI

- binding result: binds
B1: biotinylated murine IL-21 receptor (mIL-21R) (receptor)
chain: not shown
modifications: biotinylated (site not stated)
